Target: the molecule itself
Assay: size exclusion chromatography against protein standards (peaks at 80 kDa and 50 kDa; data not shown)

B1: Phytase chimera PTRec 77 (enzyme)
chain: SDTAPAGFQLERVVILSRHGVRAPTKMTQTMRDVTPHQWPEWPVKLGYITPRGEHLISLMGGFYRERFQQQGLLPKDNCPTPDAVYVWADVDQRTRLTGQAFLDGIAPGCGLKVHYQADLEKVDPLFHPVEAGVCQLDSTQTHRAIEAQLGAPLSELSQRYAKPFAQMSEILNFTASPYCKSLQQQGKSCDFATFAANEVKVNQQGTKVSLSGPLALSSTLGEVFLLQEAQGMPQVAWGRITGEKEWRDLLSLHNAQFDLLQRTPYLAKHNGTPLLQTIAHALGSNITSRPLPDISPDNKILFIAGHDTNIANISGMLGMTWTLPGQPDNTPPGGALVFERWVDNAGKPYVSVNMVYQTLAQLHDQAPLTLQHPAGSVRLNIPGCSDQTPDGYCPLSTFSRLVSHSVEPACQLP
modifications: N-linked glycans, heterogeneous (hypermannosylation), from secretion by Pichia pastoris; sites not stated
notes: Recombinant chimera of phytase fragments from Hafnia alvei, Yersinia mollaretii and Citrobacter braakii; It was secreted by P. pastoris and purified; also called DJ 11
binding result: no binding

From patent US20240158769A1 (RHEINISCH WESTF LISCHE TECHNISCHE HOCHSCHULE RWTH AACHEN, published 2024)
